The text below walks through data of PMC4975523.

The assay has as its target CBLB (UniProt Q3TTA7). Briefly: anti-CBLB IP, dectin-1 blot. The note with it: reference: wild-type Flag-dectin-1; sites Y15.

Consider “dectin-1 (from UniProt Q6QLQ4) Flag-dectin-1 Y15F”, for which the “binding against the reference” value is reported as “lost”.
